US7300651

Target: anti-idiotype antibody 3H1
Experiment: Ab1-Ab2 binding inhibition assays; competitor 8019

anti-idiotype antibody 3H1, sequence (VL, as listed by the source, chain 1 of 2): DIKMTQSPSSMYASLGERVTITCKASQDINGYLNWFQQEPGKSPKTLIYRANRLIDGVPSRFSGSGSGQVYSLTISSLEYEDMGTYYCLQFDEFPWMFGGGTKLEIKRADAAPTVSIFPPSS
anti-idiotype antibody 3H1, sequence (VH, as listed by the source, chain 2 of 2): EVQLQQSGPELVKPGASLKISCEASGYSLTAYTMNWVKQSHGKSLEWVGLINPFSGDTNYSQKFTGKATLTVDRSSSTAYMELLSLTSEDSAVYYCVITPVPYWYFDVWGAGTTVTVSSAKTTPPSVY

**Q.** For control normal serum pool (antibody), which inhibition is on record?
**A.** The inhibition was 10 to 15%.
